Test results published in patent US20020076693A1, “Novel cell surface receptor for HIV retroviruses, therapeutic and diagnostic uses” (priority 1997, published 2002).
Where two headings read alike, the source gives them in different places.

Assays:
[1] = biological target: purified preparation of the V3 loop-BPs (P95/nucleolin, P40/PHAP II, P30/PHAP I) (human) (UniProt P19338); assay: BIAcore, V3-BPs; row shifted one column to the left
[2] = biological target: purified preparation of the V3 loop-BPs (P95/nucleolin, P40/PHAP II, P30/PHAP I) (human) (UniProt P19338); assay: BIAcore, V3 loop-BPs immobilized on CM5
[3] = biological target: purified preparation of the V3 loop-BPs (P95/nucleolin, P40/PHAP II, P30/PHAP I) (human) (UniProt P19338); assay: BIAcore, V3-BPs
P95/nucleolin (human) [4] = biological target: P95/nucleolin (human) (UniProt P19338); assay: cell-based or functional assay
P95/nucleolin (human) [5] = biological target: P95/nucleolin (human) (UniProt P19338); assay: FACS on MOLT4 cells after proteinase K; target TASP-Ligand [sic]
P95/nucleolin (human) [6] = biological target: P95/nucleolin (human) (UniProt P19338); assay: FACS on CEM cells with biotin-labeled construct; target printed as TASP-ligand
P95/nucleolin (human) [7] = biological target: P95/nucleolin (human) (UniProt P19338); assay: FACS on MOLT4 cells after pronase E; target TASP-Ligand [sic]
P40/PHAP II (human) = P40/PHAP II (human) (UniProt Q01105); assay: saturation of the binding sites, method not stated
P95/nucleolin (human) [8] = biological target: P95/nucleolin (human) (UniProt P19338); assay: saturation of the binding sites, method not stated
P30/PHAP I (human) = P30/PHAP I (human) (UniProt P39687); assay: saturation of the binding sites, method not stated
P95/nucleolin (human) [9] = biological target: P95/nucleolin (human) (UniProt P19338); assay: FACS on MOLT4 cells after trypsin; target TASP-Ligand [sic]
P95/nucleolin (human) [10] = biological target: P95/nucleolin (human) (UniProt P19338); assay: FACS on MOLT4 cells, no protease; target TASP-Ligand [sic]
[11] = biological target: purified preparation of the V3 loop-BPs (P95/nucleolin, P40/PHAP II, P30/PHAP I) (human) (UniProt P19338); assay: BIAcore, V3 loop-BPs
recombinant soluble CD4 = recombinant soluble CD4 (UniProt P01730); assay: BIAcore, soluble CD4; row shifted one column to the left
[12] = biological target: purified preparation of the V3 loop-BPs (P95/nucleolin, P40/PHAP II, P30/PHAP I) (human) (UniProt P19338)
[13] = biological target: recombinant gp120 of HIV-1 Lai (IIIB) (HIV-1 Lai (IIIB)) (UniProt P03377); assay: cell-based or functional assay
[14] = biological target: CD4 (cellular, CEM and MOLT4 cells) (human) (UniProt P01730); assay: FACS on MOLT4 cells after pronase E
[15] = biological target: CD4 (cellular, CEM and MOLT4 cells) (human) (UniProt P01730); assay: FACS on MOLT4 cells after proteinase K
[16] = biological target: CD4 (cellular, CEM and MOLT4 cells) (human) (UniProt P01730); assay: cell-based or functional assay
[17] = biological target: CD4 (cellular, CEM and MOLT4 cells) (human) (UniProt P01730); assay: FACS on MOLT4 cells, no protease
[18] = biological target: CD4 (cellular, CEM and MOLT4 cells) (human) (UniProt P01730); assay: FACS on MOLT4 cells after trypsin
[19] = biological target: purified preparation of the V3 loop-BPs (P95/nucleolin, P40/PHAP II, P30/PHAP I) (human) (UniProt P19338); remark: listed apart in the source
P95/nucleolin (human) [20] = biological target: P95/nucleolin (human) (UniProt P19338); assay: competition: 50 µM unlabeled 5[KPR]-TASP against 5 µM biotin-labeled 5[Kψ(CH2N)PR]-TASP on CEM cells
[21] = biological target: purified preparation of the V3 loop-BPs (P95/nucleolin, P40/PHAP II, P30/PHAP I) (human) (UniProt P19338); assay: inhibition of gp120 binding to the V3 loop-BPs; competitor gp120
[22] = biological target: purified preparation of the V3 loop-BPs (P95/nucleolin, P40/PHAP II, P30/PHAP I) (human) (UniProt P19338); assay: BIAcore, purified V3-BPs
[23] = biological target: CD26 (on MOLT4 cells) (human) (UniProt P27487); assay: FACS on MOLT4 cells after pronase E
[24] = biological target: CD26 (on MOLT4 cells) (human) (UniProt P27487); assay: FACS on MOLT4 cells after proteinase K
[25] = biological target: CD26 (on MOLT4 cells) (human) (UniProt P27487); assay: FACS on MOLT4 cells, no protease
[26] = biological target: CD26 (on MOLT4 cells) (human) (UniProt P27487); assay: FACS on MOLT4 cells after trypsin

Chain of P95/nucleolin (human) (P19338 2-710 limits assumed): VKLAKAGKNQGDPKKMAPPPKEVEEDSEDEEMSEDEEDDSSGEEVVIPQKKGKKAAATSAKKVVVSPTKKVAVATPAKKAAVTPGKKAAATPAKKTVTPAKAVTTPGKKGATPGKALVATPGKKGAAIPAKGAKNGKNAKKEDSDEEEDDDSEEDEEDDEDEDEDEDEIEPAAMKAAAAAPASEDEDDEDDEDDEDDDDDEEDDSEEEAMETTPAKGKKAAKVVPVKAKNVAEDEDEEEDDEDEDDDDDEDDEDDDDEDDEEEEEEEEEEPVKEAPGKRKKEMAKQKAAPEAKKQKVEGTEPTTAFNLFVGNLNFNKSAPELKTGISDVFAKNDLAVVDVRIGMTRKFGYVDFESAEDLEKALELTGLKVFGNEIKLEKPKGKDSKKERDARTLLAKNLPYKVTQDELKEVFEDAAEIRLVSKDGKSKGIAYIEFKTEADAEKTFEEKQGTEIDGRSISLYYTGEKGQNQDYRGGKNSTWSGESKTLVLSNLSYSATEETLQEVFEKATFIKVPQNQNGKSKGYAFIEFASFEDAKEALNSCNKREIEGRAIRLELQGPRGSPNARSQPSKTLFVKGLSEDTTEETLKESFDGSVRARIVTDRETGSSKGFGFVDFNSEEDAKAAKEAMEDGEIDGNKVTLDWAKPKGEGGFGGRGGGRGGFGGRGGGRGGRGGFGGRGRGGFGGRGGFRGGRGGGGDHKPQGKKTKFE
Chain of P40/PHAP II (human) (Q01105 other isoform, or with tags, fused parts or gaps limits assumed): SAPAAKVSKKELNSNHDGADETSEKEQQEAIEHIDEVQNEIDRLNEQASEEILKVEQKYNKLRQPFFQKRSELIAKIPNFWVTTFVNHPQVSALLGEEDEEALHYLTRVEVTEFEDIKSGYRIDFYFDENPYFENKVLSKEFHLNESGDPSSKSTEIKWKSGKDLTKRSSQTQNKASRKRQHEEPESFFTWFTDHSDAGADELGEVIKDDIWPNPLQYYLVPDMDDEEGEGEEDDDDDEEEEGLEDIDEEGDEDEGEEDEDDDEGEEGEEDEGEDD

Work on “recombinant gp120 of HIV-1 SF2 (from UniProt P03378 32-509) (ligand)” yielded a Ka [1] of 2.32e+09 M⁻¹, a koff [1] of 3e-05 s⁻¹ and a kon [1] of 65000 M⁻¹ s⁻¹. The Ka [2] was 2.32e+09 M⁻¹, the koff [2] was 2.8e-05 s⁻¹ and the kon [2] was 65000 M⁻¹ s⁻¹.
Substance 5[Kψ(CH2N)PR]-TASP (peptide) has a Ka [3] of 9.61e+09 M⁻¹, an IC50 of HIV entry (β-galactosidase), HeLa P4, HIV-1 Lai (P95/nucleolin (human) [4]) of 500 nM and an IC50 of HIV entry (β-galactosidase), HeLa P4-C5, HIV-1 Bal (P95/nucleolin (human) [4]) of 800 nM. It also gave an IC50 of HIV entry (β-galactosidase), HeLa P4-C5, HIV-1 UGO29A (P95/nucleolin (human) [4]) of 300 nM, an IC50 of HIV entry (β-galactosidase), HeLa P4-C5, HIV-2 ROD (P95/nucleolin (human) [4]) of 400 nM and an Inhibition of HIV infection (IC50), HIV-1 in CEM cells, p24 at 4 days (P95/nucleolin (human) [4]) of 500 nM. The % positive cells (P95/nucleolin (human) [5]) was 15%, the EC50 (P95/nucleolin (human) [6]) was 150 nM and the % positive cells (P95/nucleolin (human) [7]) was 8%. The concentration giving 100% saturation of the binding sites (P40/PHAP II (human)) was 4 µM, the concentration giving 100% saturation of the binding sites (P95/nucleolin (human) [8]) was 2 µM and the concentration giving 100% saturation of the binding sites (P30/PHAP I (human)) was 8 µM. It also gave a % positive cells (P95/nucleolin (human) [9]) of 92%, a Ka [2] of 9.61e+09 M⁻¹ and a % positive cells (P95/nucleolin (human) [10]) of 100%.
For “nonglycosylated gp120 of HIV-1 SF2 (Env 2-3) (from UniProt P03378 32-509) (ligand)”, the Ka [1] was 1.6e+08 M⁻¹, the koff [1] was 0.0024 s⁻¹ and the kon [1] was 380000 M⁻¹ s⁻¹. For the same substance, the fold reduction of affinity against glycosylated gp120 SF2 [11] was 10 fold, the Ka [2] was 1.6e+08 M⁻¹ and the koff [2] was 0.0024 s⁻¹. For the same substance, the kon [2] was 380000 M⁻¹ s⁻¹.
“recombinant gp120 of HIV-1 Lai (IIIB) (from UniProt P03377 33-516) (ligand; other documents disagree on this pair)” was tested, and the Ka (recombinant soluble CD4) was 1.08e+09 M⁻¹, the koff (recombinant soluble CD4) was 0.0545 s⁻¹ and the kon (recombinant soluble CD4) was 588000 M⁻¹ s⁻¹.
“recombinant gp120 of HIV-1 Lai (IIIB) (from UniProt P03377 33-516) (ligand)” showed a Ka [1] of 2.1e+08 M⁻¹, a koff [1] of 0.0021 s⁻¹ and a kon [1] of 440000 M⁻¹ s⁻¹. The IC50 [12] was 3 nM, the Ka [2] was 2.1e+08 M⁻¹ and the koff [2] was 0.0021 s⁻¹. For the same substance, the kon [2] was 440000 M⁻¹ s⁻¹.
Substance “recombinant gp120 of HIV-1 MN (from UniProt P05877 32-513) (ligand)” has a Ka [1] of 4.3e+08 M⁻¹, a koff [1] of 0.00044 s⁻¹ and a kon [1] of 190000 M⁻¹ s⁻¹. For the same substance, the Ka [2] was 4.3e+08 M⁻¹, the koff [2] was 0.00044 s⁻¹ and the kon [2] was 190000 M⁻¹ s⁻¹.
“purified preparation of the V3 loop-BPs (P95/nucleolin, P40/PHAP II, P30/PHAP I) (from UniProt P19338 2-710; Q01105 2-277; P39687 1-249)” was tested, and the inhibition of HIV-1 Lai infection of CEM cells, multiple cycles, p24 at 5 days, 10 µg/ml [13] was 91% and the inhibition of single cycle HIV-1 infection of CEM cells [13] was > 80%.
For mAb OKT4A (antibody), the % positive cells [14] was 9%, the % positive cells [15] was 6% and the inhibition of binding of HIV-1 particles to CEM cells (p24 in cell lysates) [16] was 75%. It also gave a % positive cells [17] of 100%, a % positive cells [18] of 24% and an ELISA OD 450 nm [19] of 0.2 OD 450 nm.
Substance “5[Kψ(CH2N)PR]-TASP with dehydroxyproline in place of proline (peptide)” has an IC50 of HIV entry (β-galactosidase), HeLa P4, HIV-1 Lai (P95/nucleolin (human) [4]) of 100 nM, an IC50 of HIV entry (β-galactosidase), HeLa P4-C5, HIV-1 89.6 (P95/nucleolin (human) [4]) of 300 nM and an IC50 of HIV entry (β-galactosidase), HeLa P4-C5, HIV-1 Bal (P95/nucleolin (human) [4]) of 300 nM. The IC50 of HIV entry (β-galactosidase), HeLa P4-C5, HIV-1 JRCSF (P95/nucleolin (human) [4]) was 300 nM, the IC50 of HIV entry (β-galactosidase), HeLa P4-C5, HIV-1 Lai (P95/nucleolin (human) [4]) was 100 nM and the IC50 of HIV entry (β-galactosidase), HeLa P4-C5, HIV-2 CBL (P95/nucleolin (human) [4]) was 2000 nM. For the same substance, the IC50 of HIV entry (β-galactosidase), HeLa P4-C5, HIV-2 ROD (P95/nucleolin (human) [4]) was 200 nM.
Work on 5[KPR]-TASP (peptide) yielded a % of P95 recovery abolished (P95/nucleolin (human) [20]) of 40 to 50%, an Inhibition of HIV infection (IC50), HIV-1 in CEM cells, p24 at 4 days (P95/nucleolin (human) [4]) of 5000 nM and an EC50 (P95/nucleolin (human) [6]) of 3500 nM. For the same substance, the Ka [1] was 1.5e+08 M⁻¹, the koff [1] was 0.0024 s⁻¹ and the kon [1] was 350000 M⁻¹ s⁻¹. It also gave a Ka [2] of 1.5e+08 M⁻¹, a koff [2] of 0.0024 s⁻¹ and a kon [2] of 350000 M⁻¹ s⁻¹. The IC50 [21] was 300 nM.
In the case of synthetic V3 loop peptide of HIV-1 Lai, the Ka [22] is reported as 5.1e+06 M⁻¹ and the fold affinity against the V3 loop of the macrophage-tropic isolate [22] is reported as > 3 fold.
Substance mAb Ta1 (antibody) has a % positive cells [23] of 97%, a % positive cells [24] of 98% and a % positive cells [25] of 100%. It also gave a % positive cells [26] of 100%.
In the case of synthetic V3 loop peptide of HIV-1 Ba-L, the Ka [22] is reported as 1.5e+06 M⁻¹.
